Test results reported in the nanobody polyreactivity screen of Harvey et al. (2022).

Assay: yeast display, Sf9 membrane polyspecificity reagent, FACS + sequencing; frameworks hold sequencing errors
How it was run: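 Galactose-induced (36–48 hours) yeast carrying a synthetic nanobody display library were exposed to 10% biotinylated, detergent-solubilized Sf9 membrane reagent at 4 °C for 1 hour. FACS followed streptavidin microbead enrichment, using low and high (top ~1%) gates for expression (anti-HA) and reagent binding (streptavidin). Colony PCR, MiSeq 2 × 250 sequencing and CDR-length filtering followed. Labels for polyreactivity reflect the gate of origin.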

Sequence	polyreactivity (PSR sort gate)
QVQLVESGGGLVQAGGSLRLSCAASGFTFIHYGMGWYRQAPGKERELVAAISSRGGRTYYADSVKGRFTISRDNAKNTVYLQMNSLKPEDTAVYYCNRDYAVISYGEYDSWGQGTQVTVSS	high polyreactivity
QVQLVESGGGLVQAGGSLRLSCAASGFTFIKNAMGWYRPAPGKERELVAAINSGGRTYYADSVKGRFTISRDNAKNTVYFQMNSLIPEDTAVYYCAARYTRDYYWGQGTQVTVSS	high polyreactivity
QVQLVESGGGLVQAGGSLRLSCAASGFTFIKYAMGWYRQAPGKEREFVATISWNGGNTYYADSVKGRFTISRDNAKNTVYLQMNSLKPEDTAVYYCAARVKYRTRGGTVVSYDYWGQGTQVTVSS	high polyreactivity
QVQLVESGGGLVQAGGSLRLSCAASGFTFIKYAMGWYRQAPGKEREFVSTISWNGGNTYYADSVKGRFTISRDNAKNTVYLQINSLKPEDTAVYYGAARVKYRTRGGTVVSYDYWGQGTQVTVSS	high polyreactivity
QVQLVESGGGLVQAGGSLRLSCAASGFTFINYAMGWYRQAPGKERELVAAISSSSDRTYDADSVKGRFTISRDNAKNTVYLQMNSLKPEDTAVYYCAAYAQKRYYWGQGTQVNVSS	high polyreactivity
QVQLVESGGGLVQAGGSLRLSCAASGFTFIRYAMGWYRQAPGKERELVAAIRGTGTSTYYADSVKGRFTISRDNAKNTVYLQMNSLKPEDTAVYYCNKVAGRSPYTRYDYWGQGTQVTVSS	low polyreactivity
QVQLVESGGGLVQAGGSLRLSCAASGFTFISNAMGWYRQAPGKERELVAAISSSGGRTYYADSVKGRFTSSRDNAKNTVYLQMNSLKPEDTAVYYCNADRSLLYSRKIEYDYWGQGTQVSVSS	low polyreactivity
QVQLVESGGGLVQAGGSLRLSCAASGFTFITNAMGWYRQAPGKERELVAAISSSGGRTYYADSVKGRFTISRDNAKNTVYLQMNSLKPEDTAVYYCNADRSLLYSRKIEYDYWGQGTQVTVSS	low polyreactivity
QVQLVESGGGLVQAGGSLRLSCAASGFTFIYAMGWYRQAPGTERELVAAITRSGGSTYYADSVKGRFTISRDNAKNTVYLQMNSLKPEDTAVYYCAAEAVIYYSSYFEYYYWGQGTQVTVSS	high polyreactivity
QVQLVESGGGLVQAGGSLRLSCAASGFTFIYYAMGWYRQAPGKERELVAAIRWSGGSTYYADSVKGRFTISRDNAKNTVYLQMNSLKPEDTAVYYCAARAIYKSKYDYWGQGTQVTVSS	high polyreactivity
QVQLVESGGGLVQAGGSLRLSCAASGFTFKAYAMGWYRQAPGKERELVAAITYSGGSTYYADSVKGRFTISRDNAKNTVYLQMNSLKPEDTAVYYCNADSDLDLYWKMDYWGQGTQVTVSS	low polyreactivity
QVQLVESGGGLVQAGGSLRLSCAASGFTFKFYAMGWYRQAPGKEMEFVAAISGSGGSTYYADSVKRRFTISRDNAKNTVYLQMNSLKPEDTAVYYCAAEVPGKPYRRSRYSFRHDYWGQGTQVTVSS	low polyreactivity
QVQLVESGGGLVQAGGSLRLSCAASGFTFKGNTMGWYRQAPGKERELVATITRGGTTYYADSVKGRFTISRDNAKNTVYLQMNSLKPEDTSVYYCAAVVYRPYRWQYDYWGQGTQVTVSS	high polyreactivity
QVQLVESGGGLVQAGGSLRLSCAASGFTFKHYAMGWYRQAPGKEREFVAAITGSGGSTYYADSVKGRFTISRDNAKITVYLEMNSLKPEDTAVYYCAASDVSRYRPYRRFDYWGQGTQVTVSS	high polyreactivity
QVQLVESGGGLVQAGGSLRLSCAASGFTFKKNAMGWYRQAPGKERELVDAISISGGSTYYADSVKGRFTISRDNAKNTVYLQMNSLKPEDTAVYYCAAVYISRNFFGRARGDYWGQGTQVTVSS	low polyreactivity
QVQLVESGGGLVQAGGSLRLSCAASGFTFKRNAMGWYRQAPGKERELVAAISWSGSRTYADSVKGRFTISRDNAKNTVYLQMNSLKPEDTAVYYCAASPGRRRRPYASLIRYDYWGQGTQVTVSS	high polyreactivity
QVQLVESGGGLVQAGGSLRLSCAASGFTFKRYAMGWYRQAPGKERELVAAISWSGGSTYYADSVKGRFTISRDNAKNTVYLQMNSLKPEDTAVYYCAADGGSTEEYYYWGQGTQVTVST	high polyreactivity
QVQLVESGGGLVQAGGSLRLSCAASGFTFKTYVMGWYRQAPGKERELVAAISRRGGSTHYADSVKGRFTISRDNAKNTVYLQMNSLKPEDTAVYYCARRWYSTWWYGYWGQGTQVTVSS	high polyreactivity
QVQLVESGGGLVQAGGSLRLSCAASGFTFKWYTMGWYRQAPGKERELVAGISRRGGSTYYADSVKGRFTISRDNAKNTVYLQMNSLKPEDTAVYYCAARYTWRRAGYYYWGQGTQVTVSS	high polyreactivity
QVQLVESGGGLVQAGGSLRLSCAASGFTFKYNVMGWYRQAPGKERELVSAISKRGGNTYYADSVKGRFTISRDIAKNTVYLQMNSLKPVDTAVYYCAADPTSPETSGQGYDYWGQGTQVTVSS	high polyreactivity

Sequence	polyreactivity (PSR sort gate)
QVQLVESGGGLVQAGGSLRLSCAASGFTFKYYAMGWYRQAPGKERELVAAISRRGTSTYYADSVKGRFTISRYNAKNTVYLQMNCLKPEDTAVYYCSACAYGTYSVYWINEYDYWGQGTQVTVSS	high polyreactivity
QVQLVESGGGLVQAGGSLRLSCAASGFTFKYYAMGWYRQAPGKERELVAVISSSGGSTYYADSVKGRFTISRDNAKNTVYLQMNSLKPEDTAVYYCAAELVYRYYVKDADDYWGQGTQVTVSS	low polyreactivity
QVQLVESGGGLVQAGGSLRLSCAASGFTFKYYAMGWYRQAPGQERELVAAISSTGSTYYADSVKGRFTISRDNAKNTVYLQTNSLKPEDTAVYYCNKLFEYWGGDNDYWGRGTQVTVSS	high polyreactivity
QVQLVESGGGLVQAGGSLRLSCAASGFTFKYYDMGWYRQAPGKERELVAGITWDGGSTTYSDSVKGRFTISRDNAKNTVYLQMNSLKPEDTAVYYCAADVRYTSPFYYYLGAYYYWGQGTQVTVSS	low polyreactivity
QVQLVESGGGLVQAGGSLRLSCAASGFTFLINAMGWYRQAPGKERELVAAIRSGGSTNYADSVKGRFTISRDNAKNTVYLQMNSLKPEDTAVYYCAARRYYPYKYRYGYWGQGTQVTVSS	high polyreactivity
QVQLVESGGGLVQAGGSLRLSCAASGFTFLIYAMGWYIQAPGKERELVADISYNDDITYYADSVKGRFTISRDNAKNTVYLQMNSLKPEDTAVYYCAADYVNPELDYWGQGTQVTVSS	low polyreactivity
QVQLVESGGGLVQAGGSLRLSCAASGFTFLNNTMGWYRQAPGKERELVAAITSSGDRTYYADSVKGRFTISRDNAKNTVYLQMNSLKPEDTAVYYCAADWAYYVASYLYYTFDYWGQGTQVTVSS	low polyreactivity
QVQLVESGGGLVQAGGSLRLSCAASGFTFLNYDMGWYRQAPGKERELVAAISRSDGITYYADSVKGRFTISRDNAKNSVYLHMNSLKPEDTAVYYCAAERDTPVGVPGYEYYYWGQGTQVTVSS	high polyreactivity
QVQLVESGGGLVQAGGSLRLSCAASGFTFLRNAMGWYRQAPGKERELVAAINRDGGRTYYADSVKGRFTISRDNAKNTVYLQMNSLKPADTAVYYCATTSQATSGPRRKLYYYWGQGTQVTVSS	high polyreactivity
QVQLVESGGGLVQAGGSLRLSCAASGFTFLRNAMGWYRQAPGKERELVAAISRSDRTNYADSVKGRFTISRDNAKNTFYLQMNSLKPEDTAVYYCNARHSYWTGRRVTDDYDYWGQGTQVTVSS	high polyreactivity
QVQLVESGGGLVQAGGSLRLSCAASGFTFLTYLMGWYRQAPGKERELVASISGSGGTTYYADSVKGRFTISRDNAKNTVYLQMNSLKPEDTAVYYCAASGRYRRYYKFNYWGQGTQVTVSS	high polyreactivity
QVQLVESGGGLVQAGGSLRLSCAASGFTFLVNAMGWYRLAPGKERELVAAISRIGASTYYADSVKVRFTISRDNAKNTVYIQMNSLKPQDTAVNYCAARPWANTYPRRRYDYWGQGTQVTVSS	high polyreactivity
QVQLVESGGGLVQAGGSLRLSCAASGFTFLVYAMGWYRQAPGKERELVAGITSGGRTYYADSVKGRFTISRDNAKNTVYLQMNSLKPEDTAVYYCAASRWAYEMNYWGQGSQVTVSS	high polyreactivity
QVQLVESGGGLVQAGGSLRLSCAASGFTFLVYVMGWYRQAPGKVRELVAAISSCGSSTYYADSVKGRFTISRDNAKNTVYLQMNSLKPEDTAVYYCAAAPYYSHEYDYWGQGTQVTVSS	low polyreactivity
QVQLVESGGGLVQAGGSLRLSCAASGFTFLWNAMGWYRQAPGKERELVAAISSSGGRTYYADSVKGRFTISRDNAKNTVYLLMNSLKPEDTAVYYCARVYSSPYNFGYWGQGTQVTVSS	low polyreactivity
QVQLVESGGGLVQAGGSLRLSCAASGFTFLYNAMGWYRQAPGKERELVAAIDSGGNTNYADSVKGRFTISRDNAKITVYLQLNSLKPEDTAVYYCAADVVSGGQGTADYDYWGQGTQVTVSS	low polyreactivity
QVQLVESGGGLVQAGGSLRLSCAASGFTFLYNAMGWYRQAPGKERELVAAIDSGGNTNYADSVKGRFTISRDNAKNTVYLQMNSLKPEDTAVYYCAADVVSVGQGTADYDYWGQGTQVTVSS	low polyreactivity
QVQLVESGGGLVQAGGSLRLSCAASGFTFLYNAMGWYRQAPGKERELVASINSGGSTNYADSVKGRFTISRDKSKNTVYLQMNRLKPEDTAVYYCNAKRHVRKGDYGGQGTQVTVSS	low polyreactivity
QVQLVESGGGLVQAGGSLRLSCAASGFTFLYNVMGWYRQAPGKERELVAAISQSGTDTYYADSVKGRFTISRDNAKYTVYLQMNSLKPEDTAVYYCAVDVYFYYRHYGYWGQGTQVTVSS	low polyreactivity
QVQLVESGGGLVQAGGSLRLSCAASGFTFLYYAMGWYRQAPGKEREVVAAISSGGSTYYADSVKGRFTISRDNAKNTVYLQMNSLKPEDTAVYYCNVRYTRNRWQYDYWGQGSQVTVSS	high polyreactivity
